Reference: paper PMC9536298

Target: T1, GST-ZPR1 (human, UniProt O75312 1-459)
T1 sequence: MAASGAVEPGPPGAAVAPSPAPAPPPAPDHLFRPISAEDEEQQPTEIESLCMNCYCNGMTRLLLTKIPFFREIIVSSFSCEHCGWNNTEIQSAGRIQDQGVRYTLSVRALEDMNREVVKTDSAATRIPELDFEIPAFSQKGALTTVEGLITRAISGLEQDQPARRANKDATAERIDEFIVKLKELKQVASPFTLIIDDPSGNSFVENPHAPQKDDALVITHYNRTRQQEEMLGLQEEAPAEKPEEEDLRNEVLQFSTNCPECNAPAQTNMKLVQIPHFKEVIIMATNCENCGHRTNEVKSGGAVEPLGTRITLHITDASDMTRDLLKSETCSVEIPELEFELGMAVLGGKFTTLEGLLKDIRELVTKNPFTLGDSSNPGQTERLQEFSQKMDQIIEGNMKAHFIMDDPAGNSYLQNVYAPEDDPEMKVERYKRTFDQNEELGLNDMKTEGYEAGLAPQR
Assay: EMSA

Question: Does CGAAACTACCTTCAACTCCATCATGAAGTGTGACGTGGAC (ssDNA) [DNA* 40 nt] bind?
Answer: binds
